Molecular target: T1, mouse CD80-Fc fusion protein (mouse, UniProt Q00609 38-246)
T1 sequence: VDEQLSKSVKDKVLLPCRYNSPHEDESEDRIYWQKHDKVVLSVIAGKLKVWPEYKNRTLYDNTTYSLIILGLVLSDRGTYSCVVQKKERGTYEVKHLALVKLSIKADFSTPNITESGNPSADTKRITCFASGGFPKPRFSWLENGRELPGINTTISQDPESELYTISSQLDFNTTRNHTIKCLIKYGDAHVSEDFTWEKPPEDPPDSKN
Assay: SPR

B1: Mouse CD28 protein with His tag (receptor)
chain: NKILVKQSPLLVVDSNEVSLSCRYSYNLLAKEFRASLYKGVNSDVEVCVGNGNFTYQPQFRSNAEFNCDGDFDNETVTFRLWNLHVNHTDIYFCKIEFMYPPPYLDNERSNGTIIHIKEKHLCHTQSSPKL
Kd: 2490 nM

— PMC11805834 (Applied Microbiology and Biotechnology, 2025)
